As usually defined, the Kd is the constant that tells how readily two partners part at equilibrium. Lower therefore signals tighter binding.

Among the data in paper PMC5772613, “Phosphorylation induced cochaperone unfolding promotes kinase recruitment and client class-specific Hsp90 phosphorylation” (Nature Communications, 2018) are binding result and Kd values, retold here.

Square brackets hold non-standard residues; d marks the D form. Ends that are not written are not given here. pY = N[C@@H](Cc1ccc(OP(=O)(O)O)cc1)C(=O)O

What all share (settings): both partners purified
The target in assay [1] is T1, Full-length Hsp90β (UniProt P08238 1-724).
T1 construct: Hsp90β (printed as full-length Hsp90αβ1), in pET28; also called Hsp90αβ1
Nature of the assay: ITC; cochaperone Cdc37 (~300-400 μM, syringe) titrated into Hsp90β variants (~20-30 μM, cell); 25 °C; 20 mM Tris, 100 mM NaCl, 0.5 mM EDTA, 1 mM TCEP; single binding site model.

In assay [2] the target is T1, Full-length Hsp90β. In words: SEC; analytical, Biorad Enrich SEC 650, 4 °C; 20 mM Tris pH 7.5, 100 mM NaCl, 0.5 mM EDTA, 2 mM DTT; binary mixtures 1:1 and ternary mixtures Hsp90:Cdc37:bRaf 2:1:1, incubated 15 min at 4 °C. (In general: In gel filtration, larger molecules generally elute earlier.)
In a further assay the target is T2, SH2 domain of Yes (UniProt P07947 158-255).
T2 construct: Yes, SH2 domain; Gift of Bruce Mayer (pGEX); 15N-labelled for NMR; also called Yes^SH2; SH2^Yes; source: E. coli BL21(DE3), purified (GST column, PreScission cleavage, second GST column, Superdex 75); not shown: GST, N-terminal, cleaved
Nature of the assay: ITC; phosphopeptide (600-750 μM, syringe) titrated into SH2 domain (50-60 μM, cell); 25 °C; 20 mM Tris, 100 mM NaCl, 0.5 mM EDTA, 1 mM TCEP; single binding site model.

T1 sequence (P08238 whole entry): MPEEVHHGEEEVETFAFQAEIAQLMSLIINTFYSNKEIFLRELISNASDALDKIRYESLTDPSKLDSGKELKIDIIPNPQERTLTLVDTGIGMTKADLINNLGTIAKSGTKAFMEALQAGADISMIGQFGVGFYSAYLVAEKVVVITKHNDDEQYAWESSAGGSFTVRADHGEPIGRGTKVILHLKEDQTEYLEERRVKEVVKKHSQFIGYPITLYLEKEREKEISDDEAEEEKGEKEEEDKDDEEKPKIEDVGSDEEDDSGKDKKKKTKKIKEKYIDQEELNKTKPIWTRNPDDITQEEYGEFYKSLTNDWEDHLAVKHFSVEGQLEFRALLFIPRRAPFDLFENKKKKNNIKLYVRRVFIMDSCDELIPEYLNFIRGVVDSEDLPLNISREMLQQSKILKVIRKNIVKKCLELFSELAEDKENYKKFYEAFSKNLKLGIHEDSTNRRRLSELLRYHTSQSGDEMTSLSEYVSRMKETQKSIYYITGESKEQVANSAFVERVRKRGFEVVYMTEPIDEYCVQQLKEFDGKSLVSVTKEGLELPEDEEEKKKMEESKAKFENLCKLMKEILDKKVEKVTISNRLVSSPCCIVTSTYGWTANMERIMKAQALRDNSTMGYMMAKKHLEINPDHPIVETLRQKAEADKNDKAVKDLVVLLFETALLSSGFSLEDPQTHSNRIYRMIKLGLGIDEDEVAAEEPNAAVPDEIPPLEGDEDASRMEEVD
T2 sequence (P07947 158-255): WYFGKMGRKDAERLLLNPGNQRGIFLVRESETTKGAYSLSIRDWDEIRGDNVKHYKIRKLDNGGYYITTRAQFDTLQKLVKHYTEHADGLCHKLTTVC

B1: Full-length human Cdc37 (natural protein, UniProt Q16543 1-378, looked up)
chain: MVDYSVWDHIEVSDDEDETHPNIDTASLFRWRHQARVERMEQFQKEKEELDRGCRECKRKVAECQRKLKELEVAEGGKAELERLQAEAQQLRKEERSWEQKLEEMRKKEKSMPWNVDTLSKDGFSKSMVNTKPEKTEEDSEEVREQKHKTFVEKYEKQIKHFGMLRRWDDSQKYLSDNVHLVCEETANYLVIWCIDLEVEEKCALMEQVAHQTIVMQFILELAKSLKVDPRACFRQFFTKIKTADRQYMEGFNDELEAFKERVRGRAKLRIEKAMKEYEEEERKKRLGPGGLDPVEVYESLPEELQKCFDVKDVQMLQDAISKMDPTDAKYHMQRCIDSGLWVPNSKASEAKEGEEAGPGDPLLEAVPKTGDEKDVSV
notes: Cdc37 (p50), human, full length; isotope-labelled in some NMR samples; also called p50; wild-type Cdc37
For the molecule B1, in the assay with Full-length Hsp90β [1], the binding result is on record as “binds”.

B2: Cdc37 single phosphomimetic mutant Y4E (natural protein, human, UniProt Q16543 1-378, looked up)
chain: MVDESVWDHIEVSDDEDETHPNIDTASLFRWRHQARVERMEQFQKEKEELDRGCRECKRKVAECQRKLKELEVAEGGKAELERLQAEAQQLRKEERSWEQKLEEMRKKEKSMPWNVDTLSKDGFSKSMVNTKPEKTEEDSEEVREQKHKTFVEKYEKQIKHFGMLRRWDDSQKYLSDNVHLVCEETANYLVIWCIDLEVEEKCALMEQVAHQTIVMQFILELAKSLKVDPRACFRQFFTKIKTADRQYMEGFNDELEAFKERVRGRAKLRIEKAMKEYEEEERKKRLGPGGLDPVEVYESLPEELQKCFDVKDVQMLQDAISKMDPTDAKYHMQRCIDSGLWVPNSKASEAKEGEEAGPGDPLLEAVPKTGDEKDVSV
notes: Cdc37 (p50), human, point mutant of the full-length construct; also called Cdc37^Y4E
On to B2, for which the binding result with Full-length Hsp90β [2] is given as “binds”.

B3: Cdc37 double-phosphomimetic mutant Y4E/Y298E (natural protein, human, UniProt Q16543 1-378, looked up)
chain: MVDESVWDHIEVSDDEDETHPNIDTASLFRWRHQARVERMEQFQKEKEELDRGCRECKRKVAECQRKLKELEVAEGGKAELERLQAEAQQLRKEERSWEQKLEEMRKKEKSMPWNVDTLSKDGFSKSMVNTKPEKTEEDSEEVREQKHKTFVEKYEKQIKHFGMLRRWDDSQKYLSDNVHLVCEETANYLVIWCIDLEVEEKCALMEQVAHQTIVMQFILELAKSLKVDPRACFRQFFTKIKTADRQYMEGFNDELEAFKERVRGRAKLRIEKAMKEYEEEERKKRLGPGGLDPVEVEESLPEELQKCFDVKDVQMLQDAISKMDPTDAKYHMQRCIDSGLWVPNSKASEAKEGEEAGPGDPLLEAVPKTGDEKDVSV
notes: Cdc37 (p50), human, double point mutant of the full-length construct; also called Cdc37^EE; C^EE
Consider B3, for which the binding result in the assay with Full-length Hsp90β [2] was “binds”.

B4: Full-length Cdc37 carrying the phosphomimetic mutation Y298E (natural protein, human, UniProt Q16543 1-378, looked up)
chain: MVDYSVWDHIEVSDDEDETHPNIDTASLFRWRHQARVERMEQFQKEKEELDRGCRECKRKVAECQRKLKELEVAEGGKAELERLQAEAQQLRKEERSWEQKLEEMRKKEKSMPWNVDTLSKDGFSKSMVNTKPEKTEEDSEEVREQKHKTFVEKYEKQIKHFGMLRRWDDSQKYLSDNVHLVCEETANYLVIWCIDLEVEEKCALMEQVAHQTIVMQFILELAKSLKVDPRACFRQFFTKIKTADRQYMEGFNDELEAFKERVRGRAKLRIEKAMKEYEEEERKKRLGPGGLDPVEVEESLPEELQKCFDVKDVQMLQDAISKMDPTDAKYHMQRCIDSGLWVPNSKASEAKEGEEAGPGDPLLEAVPKTGDEKDVSV
notes: Cdc37 (p50), human, full length, point mutant; Point mutants made by QuikChange; Methyl-labelled for the NMR sample with Hsp90α; also called Cdc37^Y298E
Take B4: the binding result with Full-length Hsp90β [2] is recorded as “binds”.

B5: Phosphotyrosine-modified decapeptide EVpYESLPEEL of Cdc37 (residues 296-305) (peptide)
peptide: EV[pY]ESLPEEL
notes: Cdc37, residues 296-305; also called phosphopeptide; source: synthetic peptide (GL Biochem)
Turning to B5, the Kd in the assay with SH2 domain of Yes was determined as 410 nM. This counts as sub-micromolar.
